Test results: paper PMC6757426, “Stability and flexibility of full-length human oligodendrocytic QKI6” (BMC Research Notes, 2019)

Biological target: the molecule itself
Experiment: SEC-MALS; Superdex 200 pg increase 10/300GL, 20 mM Tris-HCl, 300 mM NaCl, 0.5 mM TCEP, pH 8.0; 200 ug QKI6 injected at 0.4 ml/min; no RNA

B1: Quaking isoform 6 (QKI6), full-length human (natural protein, UniProt Q96PU8-9 1-319, looked up)
chain: MVGEMETKEKPKPTPDYLMQLMNDKKLMSSLPNFCGIFNHLERLLDEEISRVRKDMYNDTLNGSTEKRSAELPDAVGPIVQLQEKLYVPVKEYPDFNFVGRILGPRGLTAKQLEAETGCKIMVRGKGSMRDKKKEEQNRGKPNWEHLNEDLHVLITVEDAQNRAEIKLKRAVEEVKKLLVPAAEGEDSLKKMQLMELAILNGTYRDANIKSPALAFSLAATAQAAPRIITGPAPVLPPAALRTPTPAGPTIMPLIRQIQTAVMPNGTPHPTAAIVPPGPEAGLIYTPYEYPYTLAPATSILEYPIEPSGVLGMAFPTKG
notes: Quaking isoform 6 (QKI6), human, UniProt Q96PU8-9, amino acids 1-319; calculated molecular weight of the construct 35,187.8 Da; also called full-length QKI6; human QKI6; source: E. coli BL21(DE3), purified (Ni-NTA, TEV digestion, second Ni-NTA, gel filtration on Superdex 200)
stoichiometry N: 2
